Numbering of substitutions follows the chain as printed.
How the values were obtained:
[1] = target: T1, human LRRC15 expressed on cells (human, UniProt Q8TF66 22-581); assay: flow cytometry, transfected HEK293
T1 construct: whole, on cells; On HEK293 cells transfected with LRRC15/ZsGreen1 (Retrogenix), on HT29 cells transfected with human LRRC15, and endogenous on Saos-2; also called LRRC15/ZsGreen1 transfected HEK293 cells; HT29-LRRC15
T1 sequence (looked up): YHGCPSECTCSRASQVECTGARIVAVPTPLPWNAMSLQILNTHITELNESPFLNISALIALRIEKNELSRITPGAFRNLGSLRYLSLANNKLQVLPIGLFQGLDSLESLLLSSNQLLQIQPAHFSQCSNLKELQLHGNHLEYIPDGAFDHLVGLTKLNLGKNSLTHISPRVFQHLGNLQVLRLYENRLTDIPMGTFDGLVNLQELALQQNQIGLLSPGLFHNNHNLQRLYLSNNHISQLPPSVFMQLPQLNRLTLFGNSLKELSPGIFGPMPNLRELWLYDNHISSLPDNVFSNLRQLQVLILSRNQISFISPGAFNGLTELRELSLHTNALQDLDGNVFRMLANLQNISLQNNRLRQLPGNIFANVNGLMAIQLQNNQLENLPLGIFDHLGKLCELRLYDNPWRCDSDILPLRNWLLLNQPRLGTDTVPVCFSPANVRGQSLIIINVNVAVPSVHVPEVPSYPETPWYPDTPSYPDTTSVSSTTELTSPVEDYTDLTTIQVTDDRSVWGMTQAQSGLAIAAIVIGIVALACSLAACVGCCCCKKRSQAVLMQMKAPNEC

[2] = target: T1, human LRRC15 expressed on cells; assay: flow cytometry, transfected HEK293; TPP-12942, first of the three values listed 'respectively'
From the text: (§1) Plotted is the Median AF647 Fluorescence versus antibody concentration. Background binding of each antibody to the cells (i.e. binding to ZsGreen1-only transfectants) is subtracted from the LRRC15 transfected cells at each antibody dose.
(§2) Shown is the median fluorescence of AF647 labeled secondary antibody versus antibody concentration as determined by flow cytometry. Background binding of each antibody to the cells (i.e. binding to ZsGreen1 only transfectants) can be subtracted from the LRRC15 transfected cells for each antibody concentration.

[3] = target: T2, Ephrin type-B receptor 6 (EPHB6) on transfected HEK293 cells (human, UniProt O15197 32-1021); assay: flow cytometry, transfected HEK293, 0 µg/ml
T2 construct: whole, on cells; also called EPHB6/ZsGreen1
T2 sequence (looked up): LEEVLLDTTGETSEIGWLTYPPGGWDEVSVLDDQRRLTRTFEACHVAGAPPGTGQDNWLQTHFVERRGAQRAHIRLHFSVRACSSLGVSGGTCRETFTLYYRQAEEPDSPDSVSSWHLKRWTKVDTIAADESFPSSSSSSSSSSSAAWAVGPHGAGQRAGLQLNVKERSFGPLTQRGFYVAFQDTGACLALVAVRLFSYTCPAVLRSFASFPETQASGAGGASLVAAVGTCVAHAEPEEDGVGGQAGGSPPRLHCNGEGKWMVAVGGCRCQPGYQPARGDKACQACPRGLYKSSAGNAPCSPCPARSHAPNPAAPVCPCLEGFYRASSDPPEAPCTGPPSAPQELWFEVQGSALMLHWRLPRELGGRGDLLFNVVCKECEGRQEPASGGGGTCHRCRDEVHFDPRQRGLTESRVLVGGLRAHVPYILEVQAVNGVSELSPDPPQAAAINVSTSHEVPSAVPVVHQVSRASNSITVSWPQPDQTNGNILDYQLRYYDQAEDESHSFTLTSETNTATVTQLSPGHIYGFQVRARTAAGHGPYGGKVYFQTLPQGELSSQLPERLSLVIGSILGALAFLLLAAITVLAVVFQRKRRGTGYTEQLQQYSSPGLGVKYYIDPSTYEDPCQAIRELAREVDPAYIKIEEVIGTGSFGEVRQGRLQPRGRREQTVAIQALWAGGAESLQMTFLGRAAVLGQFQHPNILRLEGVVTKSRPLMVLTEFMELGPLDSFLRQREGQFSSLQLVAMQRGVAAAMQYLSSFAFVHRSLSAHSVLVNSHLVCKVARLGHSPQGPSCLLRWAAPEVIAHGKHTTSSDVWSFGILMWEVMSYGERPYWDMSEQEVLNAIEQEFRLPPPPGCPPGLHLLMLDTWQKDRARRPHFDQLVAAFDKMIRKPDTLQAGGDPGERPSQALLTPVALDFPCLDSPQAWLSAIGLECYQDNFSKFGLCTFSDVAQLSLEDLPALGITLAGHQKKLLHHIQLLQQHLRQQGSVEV

[4] = target: T2, Ephrin type-B receptor 6 (EPHB6) on …; assay: flow cytometry, transfected HEK293, 0.1 µg/ml
[5] = target: T2, Ephrin type-B receptor 6 (EPHB6) on …; assay: flow cytometry, transfected HEK293, 0.5 µg/ml
[6] = target: T2, Ephrin type-B receptor 6 (EPHB6) on …; assay: flow cytometry, transfected HEK293, 2.5 µg/ml
[7] = target: T2, Ephrin type-B receptor 6 (EPHB6) on …; assay: flow cytometry, transfected HEK293, 0.02 µg/ml
[8] = target: T2, Ephrin type-B receptor 6 (EPHB6) on …; assay: flow cytometry, transfected HEK293, 12.5 µg/ml
[9] = target: T2, Ephrin type-B receptor 6 (EPHB6) on …; assay: flow cytometry, transfected HEK293, 62.5 µg/ml
[10] = target: T2, Ephrin type-B receptor 6 (EPHB6) on …; assay: flow cytometry, transfected HEK293, 0.004 µg/ml
[11] = target: T1, human LRRC15 expressed on cells; assay: flow cytometry, transfected HEK293; TPP-17078, second of the three values listed 'respectively'
From the text: as §1, §2

[12] = target: T1, human LRRC15 expressed on cells; assay: flow cytometry, transfected HEK293; remark: listed apart in the source
[13] = target: T2, Ephrin type-B receptor 6 (EPHB6) on …; assay: flow cytometry, live transfected HEK293 cells
[14] = target: T1, human LRRC15 expressed on cells; assay: flow cytometry, transfected HEK293; remark: listed apart in the source
From the text: Shown is the Median Fluorescence of AF647-labeled secondary antibody versus antibody concentration as determined by flow cytometry.

B1: TPP-12942 (antibody, human IgG1, kappa, V domains shown)
VH: EVQLVQSGAEVKKPGASVKVSCKASGYKFSSYWIEWVKQAPGQGLEWIGEILPGSDTTNYNEKFKDRATFTSDTSINTAYMELSRLRSDDTAVYYCARDRGNYRAWFGYWGQGTLVTVSS
VL: DIQMTQSPSSLSASVGDRVTITCRASQDISNYLNWYQQKPGGAVKFLIYYTSRLHSGVPSRFSGSGSGTDYTLTISSLQPEDFATYFCQQGEALPWTFGGGTKVEIKR
notes: Prior art humanized IgG1 kappa antibody, used as comparator; also called huM25; huM25-hIgG1Kappa
Question: With B1 as the binder, how does the EC50 [1] read?
Answer: 1.4 µg/mL

Question: What about the EC50 [2] of the same binder?
Answer: 0.2 µg/mL

B2: TPP-17078 (antibody, human IgG1, kappa, V domains shown)
VH: B1 VH
VL: B1 VL with D28S, N31S, V44P, T51A, R53S, H55Q, F87Y, E92F, A93S
notes: also called 438H-M308-H05-hIgGkappa
Question: Which “Median Fluorescence AF647” value [3] does the source give for B2 here?
Answer: 633

Question: And the “Median Fluorescence AF647” value [4]?
Answer: 3190

Question: What about the “Median Fluorescence AF647” value [5] of the same binder?
Answer: 3680

Question: And the “Median Fluorescence AF647” value [6]?
Answer: 5480

Question: What about the “Median Fluorescence AF647” value [7] of the same binder?
Answer: 2540

Question: And the “Median Fluorescence AF647” value [8]?
Answer: 7970

Question: What about the “Median Fluorescence AF647” value [9] of the same binder?
Answer: 14600

Question: What about the “Median Fluorescence AF647” value [10] of the same binder?
Answer: 1780

Question: What about the EC50 [11] of the same binder?
Answer: 0.15 µg/mL

B3: TPP-17421 (antibody, human IgG1, kappa, V domains shown)
VH: B1 VH with T57W, G108Q
VL: B1 VL with D28S, N31S, V44P, T51A, R53S, H55Q, F87Y, E92L, A93E
notes: also called 438H-M306-C11-hIgG1Kappa
Question: For B3, which EC50 [12] is on record?
Answer: 0.42 µg/mL

Question: Does B3 bind [13]?
Answer: no binding (tested: up to 62.5 µg/ml)

Question: And the “Median Fluorescence AF647” value [3]?
Answer: 628

Question: What about the “Median Fluorescence AF647” value [4] of the same binder?
Answer: 2810

Question: And the “Median Fluorescence AF647” value [5]?
Answer: 3150

Question: What about the “Median Fluorescence AF647” value [6] of the same binder?
Answer: 4150

Question: What about the “Median Fluorescence AF647” value [7] of the same binder?
Answer: 1770

Question: What about the “Median Fluorescence AF647” value [8] of the same binder?
Answer: 5390

Question: And the “Median Fluorescence AF647” value [9]?
Answer: 9050

Question: What about the “Median Fluorescence AF647” value [10] of the same binder?
Answer: 1250

B4: TPP-14389 (antibody, human IgG1, kappa, V domains shown)
VH: EVQLLESGGGLVQPGGSLRLSCAASGFTFSGYMMSWVRQAPGKGLEWVSGIYPSPGYTYYADSVKGRFTISRDNSKNTLYLQMNSLRAEDTAVYYCAREKASDLFGSYSEALDYWGQGTLVTVSS
VL: DIQMTQSPDSLSASVGDRVTITCRASQDVGSWLAWYQQKPGKAPKLLIFAASSLESGIPSRFSGSGSGTDFTLTISSLQPEDFATYYCQQANGFPLTFGGGTKVEIKR
notes: also called 13612-rec02-hIgG1Kappa
Question: B4 was tested. Which EC50 [14] did it give?
Answer: 0.26 µg/mL

Reference: patent US20240108766A1 (Bayer, published 2024)
